One test deals with T1, GST-TR4 (Homo sapiens, UniProt P49116).
T1 construct: which used the full length of TR4 containing AF-1; made in house
T1 sequence (P49116 1-615 isoform P49116-2 N175S/W419R/A428G/K503N/L504W/A613V): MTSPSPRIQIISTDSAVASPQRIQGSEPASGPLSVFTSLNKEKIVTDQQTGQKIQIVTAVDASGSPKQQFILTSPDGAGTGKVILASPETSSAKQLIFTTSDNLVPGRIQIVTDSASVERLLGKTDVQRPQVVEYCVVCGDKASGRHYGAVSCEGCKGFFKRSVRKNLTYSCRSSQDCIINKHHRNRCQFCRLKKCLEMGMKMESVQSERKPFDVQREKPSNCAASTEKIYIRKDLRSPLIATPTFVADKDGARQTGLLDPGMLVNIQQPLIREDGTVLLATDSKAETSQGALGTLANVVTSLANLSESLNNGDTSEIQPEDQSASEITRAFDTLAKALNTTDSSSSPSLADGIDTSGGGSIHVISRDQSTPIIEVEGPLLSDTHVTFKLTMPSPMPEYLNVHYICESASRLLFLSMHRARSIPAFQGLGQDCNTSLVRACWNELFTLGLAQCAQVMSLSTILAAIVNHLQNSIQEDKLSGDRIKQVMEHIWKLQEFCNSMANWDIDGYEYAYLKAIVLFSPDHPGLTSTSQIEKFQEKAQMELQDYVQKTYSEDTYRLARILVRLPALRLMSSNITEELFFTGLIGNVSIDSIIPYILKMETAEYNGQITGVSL
Put plainly: GST-TR4 pull-down assay. As to conditions: for Interaction with GST-TR4 fusion protein: [35S]-methionine labeled proteins, absence of E2, Example 3; for Interaction with GST-TR4 in pull-down assay: in vitro translated 35S methionine-labeled proteins, Example 1. Format: binding. As to the method: GST-TR4 fusion protein and GST control protein were purified as instructed by the manufacturer (Pharmacia). […] of in vitro translated 35S methionine-labeled proteins were used to perform a pull-down assay as described previously. Cacailles, et al., EMBO 14, 3741-3751 (1995).
Using a GAL4-TR4 fusion protein as bait, the yeast two-hybrid system was used to isolate several potential TR4 associated proteins. […] A GST-TR4 fusion protein pull-down assay was performed to further confirm the result. GST-TR4 fusion protein and GST control protein were purified as instructed by the manufacturer (Pharmacia).
A GST pull-down assay was performed according to the methods described previously (Lee, Y. et al. (1999) Proc. Natl. Acad Sci. USA. 96(26) 14724-9).
Briefly, the GST fusion protein and GST control protein were expressed in an Escherichia coli strain BL21 (DE3) pLys bacterial culture and recovered on glutathione-Sepharose-4B beads. Equal amounts of GST fusion protein bound to glutathione-Sepharose-4B beads were incubated for 2 h at 4° C. with 5 μl of in vitro translated [^35S]methionine-labeled protein in a total volume of 100 µl of incubation buffer (20 mM HEPES/pH 7.9, 150 mM KCl, 5 mM MgCl2, 0.5 mM EDTA, 0.5 mM dithiothreitol, 0.1% Nonidet P-40, 1 mg/ml bovine serum albumin, and 10% glycerol), and protease inhibitor mixture (1 mM phenylmethylsulfonyl fluoride, 1 μg/ml aprotinin, leupeptin, and pepstatin). The beads were then washed three times with wash buffer (20 mM Tris/pH 8.0, 100 mM NaCl, 1 mM EDTA, and 0.5% Nonidet P-40), boiled in 2×SDS sample buffer, loaded onto SDS-polyacrylamide gels, and visualized by autoradiography.

The next test has as its target T2, ER homodimer (Homo sapiens, UniProt P03372).
T2 sequence (P03372 312-595): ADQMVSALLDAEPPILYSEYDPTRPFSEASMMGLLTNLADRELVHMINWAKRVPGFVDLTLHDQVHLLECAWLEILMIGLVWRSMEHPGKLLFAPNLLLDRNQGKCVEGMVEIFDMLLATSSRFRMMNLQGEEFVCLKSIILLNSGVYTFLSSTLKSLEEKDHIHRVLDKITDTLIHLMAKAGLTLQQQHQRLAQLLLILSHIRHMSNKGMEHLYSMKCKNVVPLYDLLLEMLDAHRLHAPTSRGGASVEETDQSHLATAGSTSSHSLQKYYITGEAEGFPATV
The test can be described thus: ER homodimer formation, competition GST pull-down (GST-ER-LBD with [35S]-ER). The conditions noted are these: for ER homodimer formation (GST-ER-LBD with [35S]-ER): Example 2, FIG. 16B.

This is an account of results in patent US20030235860A1, “Interactions between AR, ER, TR2, and TR4” (priority 1999, published 2003).

No end group written: not given here.

For the molecule AR: androgen receptor, SEQ ID NO:31, in the test with GST-TR4, the “Interaction with GST-TR4 fusion protein” value is reported as “binds well” and the “Interaction with GST-TR4 in pull-down assay” value is recorded as “physically interact”.
For “ER-#6: interaction blocker, ER fragment aa 312-340, as HA-tagged peptide, expression plasmid or cleaved peptide (ADQMVSALLDAEPPILYSEYDPTRPFSEA; also: HA tag (position not given here); UniProt P03372 312-340, looked up, fragment)”, the “ER homodimer formation (GST-ER-LBD with [35S]-ER)” value in the test with ER homodimer was “rescued”.
Take “RXR: retinoid X receptor, another member of the steroid receptor superfamily”: in the test with GST-TR4, the “Interaction with GST-TR4 fusion protein” value is on record as “unable to interact” and the “Interaction with GST-TR4 in pull-down assay” value is listed as “no interaction”.

B1: TR2: human testicular orphan nuclear receptor 2, 603 amino acids (protein, UniProt P13056 1-603, looked up)
chain: MATIEEIAHQIIEQQMGEIVTEQQTGQKIQIVTALDHNTQGKQFILTNHDGSTPSKVILARQDSTPGKVFLTTPDAAGVNQLFFTTPDLSAQHLQLLTDNSPDQGPNKVFDLCVVCGDKASGRHYGAVTCEGCKGFFKRSIRKNLVYSCRGSKDCIINKHHRNRCQYCRLQRCIAFGMKQDSVQCERKPIEVSREKSSNCAASTEKIYIRKDLRSPLTATPTFVTDSESTRSTGLLDSGMFMNIHPSGVKTESAVLMTSDKAESCQGDLSTLANVVTSLANLGKTKDLSQNSNEMSMIESLSNDDTSLCEFQEMQTNGDVSRAFDTLAKALNPGESTACQSSVAGMEGSVHLITGDSSINYTEKEGPLLSDSHVAFRLTMPSPMPEYLNVHYIGESASRLLFLSMHWALSIPSFQALGQENSISLVKAYWNELFTLGLAQCWQVMNVATILATFVNCLHNSLQQDKMSTERRKLLMEHIFKLQEFCNSMVKLCIDGYEYAYLKAIVLFSPDHPSLENMEQIEKFQEKAYVEFQDYITKTYPDDTYRLSRLLLRLPALRLMNATITEELFFKGLIGNIRIDSVIPHILKMEPADYNSQIIGHSI
modifications: full-length
notes: human testicular orphan nuclear receptor 2, 603 amino acids
On to B1, for which the “Interaction with GST-TR4 in pull-down assay” value with GST-TR4 was “physically interact”. Also, the “ER homodimer formation (GST-ER-LBD with [35S]-ER)” value with ER homodimer is “interrupted”.

B2: TR4: human testicular orphan nuclear receptor 4, SEQ ID NO:16; expressed from plasmid or in vitro translated (protein)
chain: T1 sequence (P49116 1-615 isoform P49116-2 N175S/W419R/A428G/K503N/L504W/A613V)
As to B2, in the test with ER homodimer (increasing amounts of TR4, Example 3), the “ER-ER homodimerization (GST-ER-LBD with [35S] ER)” value is reported as “inhibit”.
